The record followed here is patent publication US20210214414A1 (Pfizer, published 2021).

The target in assay [1] is T1, Human/cynomolgus monkey SLIT2-D2 (human and cynomolgus monkey (100% …, UniProt O94813 271-479)).
T1 construct: domain: D2; the crystallisation construct (271-479, His6) is kept as a separate molecule; also called Human and Cynomolgus Monkey SLIT2-D2; SLIT2 D2 domain
T1 sequence (looked up): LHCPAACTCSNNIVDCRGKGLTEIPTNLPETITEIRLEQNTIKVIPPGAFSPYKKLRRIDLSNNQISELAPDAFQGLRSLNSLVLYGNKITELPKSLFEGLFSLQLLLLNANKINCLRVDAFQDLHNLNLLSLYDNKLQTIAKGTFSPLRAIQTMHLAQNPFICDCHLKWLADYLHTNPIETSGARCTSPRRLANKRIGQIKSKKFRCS
The assay is described as follows: SPR, ROBO2-Fc 2.2 captured by anti-human Fc on a C1 chip, SLIT2-D2 as analyte, 1:1 model. The method, then: HBS-EP was used as a diluent. […] An 8 point 2-fold dilution series was performed on the SLIT2 ligands, ranging from 2 nM to 15.6 pM using HBS-EPB as the diluent. […] Association of the indicated SLIT2 ligand was followed for 120 s and dissociation monitored for 180 s. The apparent binding affinity was determined using a simple 1:1 interaction model of the kinetic rate constants.
A general note: SPR reads the build-up and loss of mass on a sensor chip optically.

Another assay addresses T2, Rabbit SLIT3-N (rabbit, UniProt A0A5F9DK65 34-1126).
T2 construct: domain: SLIT3-N; d2-labelled in the HTRF assay
T2 sequence: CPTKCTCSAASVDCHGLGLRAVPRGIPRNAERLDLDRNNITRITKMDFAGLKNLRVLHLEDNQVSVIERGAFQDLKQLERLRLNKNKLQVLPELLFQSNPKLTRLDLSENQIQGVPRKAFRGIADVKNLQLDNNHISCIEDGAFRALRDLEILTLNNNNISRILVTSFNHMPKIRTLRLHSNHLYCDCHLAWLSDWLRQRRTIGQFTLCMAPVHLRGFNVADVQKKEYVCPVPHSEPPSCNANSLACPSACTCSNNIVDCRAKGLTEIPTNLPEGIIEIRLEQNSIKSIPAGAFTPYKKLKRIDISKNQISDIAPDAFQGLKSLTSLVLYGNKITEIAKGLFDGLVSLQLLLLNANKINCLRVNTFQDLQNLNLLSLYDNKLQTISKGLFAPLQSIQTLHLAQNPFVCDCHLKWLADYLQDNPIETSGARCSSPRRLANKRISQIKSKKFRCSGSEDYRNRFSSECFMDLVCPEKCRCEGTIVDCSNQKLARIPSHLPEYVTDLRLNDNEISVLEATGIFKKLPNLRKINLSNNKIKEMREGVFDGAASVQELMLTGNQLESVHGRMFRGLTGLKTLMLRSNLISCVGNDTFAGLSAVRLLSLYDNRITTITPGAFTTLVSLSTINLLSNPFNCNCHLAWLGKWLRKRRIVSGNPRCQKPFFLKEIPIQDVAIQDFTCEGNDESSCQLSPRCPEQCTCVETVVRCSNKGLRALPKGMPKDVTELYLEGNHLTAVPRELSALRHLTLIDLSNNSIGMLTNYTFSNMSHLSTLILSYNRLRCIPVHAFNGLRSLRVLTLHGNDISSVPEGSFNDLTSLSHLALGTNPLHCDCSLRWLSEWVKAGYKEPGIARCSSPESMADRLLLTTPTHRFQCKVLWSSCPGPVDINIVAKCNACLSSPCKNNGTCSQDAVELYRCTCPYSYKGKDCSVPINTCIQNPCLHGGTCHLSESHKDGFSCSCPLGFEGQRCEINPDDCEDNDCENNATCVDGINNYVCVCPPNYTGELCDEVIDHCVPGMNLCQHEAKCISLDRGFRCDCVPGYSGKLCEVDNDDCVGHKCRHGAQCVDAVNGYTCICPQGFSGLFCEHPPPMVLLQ
The assay can be described thus: HTRF competition: d2-labelled rabbit SLIT3-N binding to human ROBO2 on HEK293 cells; geometric mean, n=3. As for the experimental part: (§1) After incubation, fluorescence at 665 nm and 620 nm was measured on an Envision multilabel plate reader. The HTRF Ratio was calculated as follows: fluorescence at 665 nm/fluorescence at 620 nm×10,000. […] The IC₅₀ for each SLITx-N was determined using an 11-point, 4-fold dilution series with a top concentration of 4000 nM.
Background: In TR-FRET formats the signal depends on donor and acceptor labels being close together.

The target in a further assay is T3, Human SLIT1-N (human, UniProt O75093 34-1127, limits assumed).
T3 construct: domain: SLIT1-N; d2-labelled in the HTRF assay
T3 sequence (looked up): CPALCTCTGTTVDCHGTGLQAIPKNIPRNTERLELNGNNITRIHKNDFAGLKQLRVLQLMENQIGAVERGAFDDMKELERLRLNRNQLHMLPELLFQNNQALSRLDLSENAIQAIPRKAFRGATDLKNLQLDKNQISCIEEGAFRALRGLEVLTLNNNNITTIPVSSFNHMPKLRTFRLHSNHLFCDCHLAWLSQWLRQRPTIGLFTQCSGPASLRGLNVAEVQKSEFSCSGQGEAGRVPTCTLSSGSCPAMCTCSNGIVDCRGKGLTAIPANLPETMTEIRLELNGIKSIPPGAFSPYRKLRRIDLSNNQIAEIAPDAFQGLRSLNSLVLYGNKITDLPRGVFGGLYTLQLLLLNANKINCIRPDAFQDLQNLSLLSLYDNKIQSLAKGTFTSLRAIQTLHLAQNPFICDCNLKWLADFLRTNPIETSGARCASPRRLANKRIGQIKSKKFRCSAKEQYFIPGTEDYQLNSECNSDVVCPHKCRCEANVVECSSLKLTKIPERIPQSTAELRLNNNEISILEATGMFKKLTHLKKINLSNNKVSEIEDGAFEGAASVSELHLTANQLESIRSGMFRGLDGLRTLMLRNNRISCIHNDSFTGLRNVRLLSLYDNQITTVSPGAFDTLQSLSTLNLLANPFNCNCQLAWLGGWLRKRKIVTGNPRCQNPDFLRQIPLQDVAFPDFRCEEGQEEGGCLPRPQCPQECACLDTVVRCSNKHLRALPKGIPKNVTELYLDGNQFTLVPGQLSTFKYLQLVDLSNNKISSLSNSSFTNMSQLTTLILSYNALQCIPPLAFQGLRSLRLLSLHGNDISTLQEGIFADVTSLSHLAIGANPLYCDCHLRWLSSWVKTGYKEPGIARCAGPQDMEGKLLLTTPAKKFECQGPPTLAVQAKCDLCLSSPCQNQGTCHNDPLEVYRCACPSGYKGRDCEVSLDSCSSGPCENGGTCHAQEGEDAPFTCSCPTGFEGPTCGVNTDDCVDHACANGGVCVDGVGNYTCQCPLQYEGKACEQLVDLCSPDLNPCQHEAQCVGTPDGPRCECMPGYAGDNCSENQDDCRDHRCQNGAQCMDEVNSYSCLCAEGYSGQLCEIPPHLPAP
The assay is described as follows: HTRF competition: d2-labelled human SLIT1-N binding to human ROBO2 on HEK293 cells; geometric mean, n=3. As for the experimental part: as §1

B1: ROBO2-Fc 2.2 (Fc fusion)
chain: SRLRQEDFPPRIVEHPSDVIVSKGEPTTLNCKAEGRPTPTIEWYKDGERVETDKDDPRSHRMLLPSGSLFFLRIVHGRRSKPDEGSYVCVARNYLGEAVSRNASLEVALLRDDFRQNPTDVVVAAGEPAILECQPPRGHPEPTIYWKKDKVRIDDKEERISIRGGKLMISNTRKSDAGMYTCVGTNMVGERDSDPAELTVFERGGSGGSEPKSSDKTHTCPPCPAPEAAGAPSVFLFPPKPKDTLMISRTPEVTCVVVDVSHEDPEVKFNWYVDGVEVHNAKTKPREEQYNSTYRVVSVLTVLHQDWLNGKEYKCKVSNKALPAPIEKTISKAKGQPREPQVYTLPPSREEMTKNQVSLTCLVKGFYPSDIAVEWESNGQPENNYKTTPPVLDSDGSFFLYSKLTVDKSRWQQGNVFSCSVMHEALHNHYTQKSLSLSPG
notes: Labelled with Alexa Fluor 647 in the flow cytometry assay; also called ROBO-Fc 2.2; ROBO2-Fc 2.2-AF647
The term Kd denotes the free concentration of one partner at which half of the binding sites on the other are occupied at equilibrium, for simple one-to-one binding. As usually defined, the IC50 is the concentration needed to halve the response being measured. In assay [1], B1 came in with an equilibrium dissociation constant (Kd) of 0.293 nM. Also, the results for the 50% inhibitory concentration (IC50) with Rabbit SLIT3-N and with Human SLIT1-N were 10.2 nM and 5.9 nM, respectively.
